Measurements taken from patent US12295987B2, “Method of using a GIP/GLP1 co-agonist for diabetes” (Eli Lilly and Company, priority 2018, dated 2025).

What follows are substances tested against T1, human gastric inhibitory peptide receptor (hGIPR) (Homo sapiens, UniProt P48546) (assay: cAMP pharmacological functional assay in presence of 0.1% casein, hGIPR). Conditions: ratio of hGIPR to hGLP1R cAMP EC50 ratios.
T1 construct: expressed in transfected cells; host or cells: HEK293
T1 sequence (P48546 22-466): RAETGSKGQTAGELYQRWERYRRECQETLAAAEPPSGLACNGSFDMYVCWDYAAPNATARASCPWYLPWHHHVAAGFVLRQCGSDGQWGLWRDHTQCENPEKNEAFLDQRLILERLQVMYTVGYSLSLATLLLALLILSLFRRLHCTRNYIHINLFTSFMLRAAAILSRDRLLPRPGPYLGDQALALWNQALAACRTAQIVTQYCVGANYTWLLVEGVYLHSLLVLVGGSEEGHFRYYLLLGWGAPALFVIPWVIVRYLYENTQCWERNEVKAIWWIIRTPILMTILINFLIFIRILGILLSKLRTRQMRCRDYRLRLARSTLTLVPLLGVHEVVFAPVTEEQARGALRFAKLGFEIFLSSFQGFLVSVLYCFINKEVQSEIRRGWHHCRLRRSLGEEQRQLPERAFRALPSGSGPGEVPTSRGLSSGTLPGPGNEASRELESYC
Assay type: cell-based

| Substance | [hGIPR/hGLP1R] EC50 Ratio |
| --- | --- |
| Y-Aib-EGT-αMeF(2F)-TSDYSI-αMeL-LDEK((2-[2-(2-Amino-ethoxy)-ethoxy]-acetyl)2-(γGlu)-CO—(CH2)14—CO2H)AQ-Aib-EFI-(D-Glu)-YLIEGGPSSGAPPPS-NH2 (YXEGTXTSDYSIXLDEKAQXEFIXYLIEGGPSSGAPPPS; Aib, αMeF(2F), αMeL, D-Glu; lipidated K; amide; (2)..(2) Xaa at position 2 is Aib; (6)..(6) Xaa at position 6 is alpha-methyl-Phe(2F); (13)..(13) Xaa at position 13 is alpha-methyl-Leu; MOD_RES (17)..(17) Lys at position 17 is chemically modified by conjugation of the epsilon-amino group of the Lys side chain with (2-[2-(2-amino-ethoxy)-ethoxy]-acetyl)2-(gamma-Glu)-CO-(CH2)14- CO2H; (20)..(20) Xaa at position 20 is Aib; (24)..(24) Xaa at positi) [Peptide 208] | 9.08 |
| Y-Aib-EGT-αMeF(2F)-TSDYSI-αMeL-LDEK((2-[2-(2-Amino-ethoxy)-ethoxy]-acetyl)2-(γGlu)-CO—(CH2)16—CO2H)AQ-Aib-EFI-(D-Glu)-YLIEGG-NH2 (YXEGTXTSDYSIXLDEKAQXEFIXYLIEGG; Aib, αMe, D-Glu, C18 diacid lipidation, C-amide; (2)..(2) Xaa at position 2 is Aib; (6)..(6) Xaa at position 6 is alpha-methyl-Phe(2F); (13)..(13) Xaa at position 13 is alpha-methyl-Leu; MOD_RES (17)..(17) Lys at position 17 is chemically modified by conjugation of the epsilon-amino group of the Lys side chain with (2-[2-(2-amino-ethoxy)-ethoxy]-acetyl)2-(gamma-Glu)-CO-(CH2)16- CO2H; (20)..(20) Xaa at position 20 is Aib; (24)..(24) Xaa at positi) [Peptide 220] | 4.63 |
| Y-Aib-EGT-αMeF(2F)-TSDYSI-αMeL-LDEK((2-[2-(2-Amino-ethoxy)-ethoxy]-acetyl)2-(γGlu)-CO—(CH2)16—CO2H)AQ-Aib-EFI-(D-Glu)-YLIEGGPSSG-NH2 (YXEGTXTSDYSIXLDEKAQXEFIXYLIEGGPSSG; Aib, αMe, D-Glu, C18 diacid lipidation, C-amide; (2)..(2) Xaa at position 2 is Aib; (6)..(6) Xaa at position 6 is alpha-methyl-Phe(2F); (13)..(13) Xaa at position 13 is alpha-methyl-Leu; MOD_RES (17)..(17) Lys at position 17 is chemically modified by conjugation of the epsilon-amino group of the Lys side chain with (2-[2-(2-amino-ethoxy)-ethoxy]-acetyl)2-(gamma-Glu)-CO-(CH2)16- CO2H; (20)..(20) Xaa at position 20 is Aib; (24)..(24) Xaa at positi) [Peptide 219] | 5.69 |
| Y-Aib-EGT-αMeF(2F)-TSDYSI-αMeL-LDEK((2-[2-(2-Amino-ethoxy)-ethoxy]-acetyl)2-(γGlu)-CO—(CH2)16—CO2H)AQ-Aib-EFI-(D-Glu)-YLIEGGPSSGAPPPS-NH2 (YXEGTXTSDYSIXLDEKAQXEFIXYLIEGGPSSGAPPPS; Aib, αMeF(2F), αMeL, D-Glu; lipidated K; amide; (2)..(2) Xaa at position 2 is Aib; (6)..(6) Xaa at position 6 is alpha-methyl-Phe(2F); (13)..(13) Xaa at position 13 is alpha-methyl-Leu; MOD_RES (17)..(17) Lys at position 17 is chemically modified by conjugation of the epsilon-amino group of the Lys side chain with (2-[2-(2-amino-ethoxy)-ethoxy]-acetyl)2-(gamma-Glu)-CO-(CH2)16- CO2H; (20)..(20) Xaa at position 20 is Aib; (24)..(24) Xaa at positi) [Peptide 221] | 5.66 |
| Y-Aib-EGT-αMeF(2F)-TSDYSI-αMeL-LDEK((2-[2-(2-Amino-ethoxy)-ethoxy]-acetyl)2-(γGlu)-CO—(CH2)16—CO2H)AQ-Aib-EFIEYLIEGG-NH2 (YXEGTXTSDYSIXLDEKAQXEFIEYLIEGG; Aib, αMe residues, C18 diacid lipidation, C-amide; (2)..(2) Xaa at position 2 is Aib; (6)..(6) Xaa at position 6 is alpha-methyl-Phe(2F); (13)..(13) Xaa at position 13 is alpha-methyl-Leu; MOD_RES (17)..(17) Lys at position 17 is chemically modified by conjugation of the epsilon-amino group of the Lys side chain with (2-[2-(2-amino-ethoxy)-ethoxy]-acetyl)2-(gamma-Glu)-CO-(CH2)16- CO2H; (20)..(20) Xaa at position 20 is Aib; MOD_RES (30)..(30) Gly a) [Peptide 104] | 2.66 |
| Y-Aib-EGT-αMeF(2F)-TSDYSI-αMeL-LDEK((2-[2-(2-Amino-ethoxy)-ethoxy]-acetyl)2-(γGlu)-CO—(CH2)18—CO2H)AQ-Aib-EFI-(D-Glu)--αMeY-LIEGGPSSGAPPPS-NH2 (YXEGTXTSDYSIXLDEKAQXEFIXXLIEGGPSSGAPPPS; Aib, αMeF(2F), αMeL, D-Glu, αMeY; lipidated K; amide; (2)..(2) Xaa at position 2 is Aib; (6)..(6) Xaa at position 6 is alpha-methyl-Phe(2F); (13)..(13) Xaa at position 13 is alpha-methyl-Leu; MOD_RES (17)..(17) Lys at position 17 is chemically modified by conjugation of the epsilon-amino group of the Lys side chain with (2-[2-(2-amino-ethoxy)-ethoxy]-acetyl)2-(gamma-Glu)-CO-(CH2)18- CO2H; (20)..(20) Xaa at position 20 is Aib; (24)..(24) Xaa at positi) [Peptide 222] | 3.77 |
| Y-Aib-EGT-αMeF(2F)-TSDYSI-αMeL-LDEK((2-[2-(2-Amino-ethoxy)-ethoxy]-acetyl)2-(γGlu)-CO—(CH2)18—CO2H)AQ-Aib-EFI-(D-Glu)-YLIEGGPSSGAPPPS-NH2 (YXEGTXTSDYSIXLDEKAQXEFIXYLIEGGPSSGAPPPS; Aib, alphaMe residues, C20 diacid lipidation, C-amide; (2)..(2) Xaa at position 2 is Aib; (6)..(6) Xaa at position 6 is alpha-MeF(2F); (13)..(13) Xaa at position 13 is alpha-MeL; MOD_RES (17)..(17) K at position 17 is chemically modified by conjugation of the epsilon-amino group of the K side chain with (2-[2-(2-amino-ethoxy)-ethoxy]-acetyl)2-(gamma-Glu)-CO-(CH2)18- CO2H; (20)..(20) Xaa at position 20 is Aib; (24)..(24) Xaa at position 24 is D-Glu; MO) [Peptide 1] | 4.15 |
| Y-Aib-EGT-αMeF(2F)-TSDYSI-αMeL-LDEK((2-[2-(2-Amino-ethoxy)-ethoxy]-acetyl)2-(γGlu)-CO—(CH2)18—CO2H)AQ-Aib-EFI-Aad-YLIEGGPSSGAPPPS-NH2 (YXEGTXTSDYSIXLDEKAQXEFIXYLIEGGPSSGAPPPS; Aib, Aad, αMeF(2F), αMeL; acylated lysine C20 diacid; amide; (2)..(2) Xaa at position 2 is Aib; (6)..(6) Xaa at position 6 is alpha-methyl-Phe(2F); (13)..(13) Xaa at position 13 is alpha-methyl-Leu; MOD_RES (17)..(17) Lys at position 17 is chemically modified by conjugation of the epsilon-amino group of the Lys side chain with (2-[2-(2-amino-ethoxy)-ethoxy]-acetyl)2-(gamma-Glu)-CO-(CH2)18- CO2H; (20)..(20) Xaa at position 20 is Aib; (24)..(24) Xaa at positi) [Peptide 147] | 3.66 |
| Y-Aib-EGT-αMeF(2F)-TSDYSI-αMeL-LDEK((2-[2-(2-Amino-ethoxy)-ethoxy]-acetyl)2-(γGlu)-CO—(CH2)18—CO2H)AQ-Aib-EFI-Aib-YLIEGGPSSGAPPPS-NH2 (YXEGTXTSDYSIXLDEKAQXEFIXYLIEGGPSSGAPPPS; Aib, αMeF(2F), αMeL; acylated lysine C20 diacid; amide; (2)..(2) Xaa at position 2 is Aib; (6)..(6) Xaa at position 6 is alpha-methyl-Phe(2F); (13)..(13) Xaa at position 13 is alpha-methyl-Leu; MOD_RES (17)..(17) Lys at position 17 is chemically modified by conjugation of the epsilon-amino group of the Lys side chain with (2-[2-(2-amino-ethoxy)-ethoxy]-acetyl)2-(gamma-Glu)-CO-(CH2)18- CO2H; (20)..(20) Xaa at position 20 is Aib; (24)..(24) Xaa at positi) [Peptide 152] | 5.31 |
